Measurements: PMC12516185

Biological target: Zea mays pullulanase1 (ZPU1), from residue 80, GAL4 fusion (maize (Zea mays L.)) (UniProt O81638)

- Red Pullulan hydrolysis (ZPU1 activity) in total soluble extracts of yeast strain 830 (ISA1 and ZPU1) compared with strain 808 (ZPU1 alone): 1.7 fold
Substance: maize isoamylase1 (ISA1), mature protein from residue 50, GAL4 fusion (from UniProt O22637 50-789) (enzyme)
